Test results as given in publication PMC4342241, “Antimicrobial Characterization of Site-Directed Mutagenesis of Porcine Beta Defensin 2” (PLoS ONE, 2015).
Where no end group is shown, it is not given here.

Assays:
[1] = cited from earlier work
Excerpt: In this report, eight amino acids of pBD2 were selected for substitution by arginine or lysine based on rational analysis. It was hypothesized that the major factor defining the antimicrobial activities of defensins was their cationicity or isoelectric point (pI) values. Indeed, the antimicrobial activities of defensins increased with their net charges. Harder et al reported that human beta defensin 3 (hBD3) had the strongest activity among hBD1, 2 and 3, because it had the most net positive charges (hBD1, 2 and 3 has +5, +6, and +11 net pos ...

porcine erythrocytes = assay: Hemolytic activity assay (release of hemoglobin); type: cell-based; conditions: 0~80 μg/ml, 37°C for 1 h
Description: The release of hemoglobin from porcine erythrocytes was used as a measure for the hemolytic activity of defensin as described before. 1mL fresh porcine blood was centrifuged at 1800 g for 10 min for collecting erythrocytes in the presence of heparin to prevent coagulation. The pellet was washed three times and re-suspended in saline solution at the proportion of 1:9. Subsequently, 100 μL erythrocyte solution was mixed with 100 μL of individual mutated defensins (final concentrations were 0~80 μg/ml) in polypropylene 96-well microtiter plates. After incubation at 37°C for 1 h, the plate was centrifuged at 1800 g for 5 min. 100 μL supernatant was transferred to a new 96-well plate separately and the absorbance was measured at 450 nm (reference 630 nm) using a microplate reader. The hemolysis ratio was calculated by comparison with the control samples containing no peptide or 1% Trition-100 [24–25].
Different concentrations of mutant pBD2 protein (100 μL) were separately incubated with erythrocytes (100 μL) at 37°C for 1 h. Less than 10% hemolysis ratio was found at all different concentrations of mpBD2-1~8 (data not shown). No significant differences were observed among different concentrations or among different mutants (P > 0.05).

Substance	net positive charges [1]	hemolytic activity (in words) (porcine erythrocytes)
hBD2: human beta defensin 2 (GIGDPVTCLKSGAICHPVFCPRRYKQIGTCGLPGTKCCKKP; ends and bridges not checked; cysteine pairing not given here; UniProt O15263 24-64, looked up)	+6	–
Porcine β defensin 2 [pBD2]	–	low hemolytic activities
human beta defensin 3 (GIINTLQKYYCRVRGGRCAVLSCLPKEEQIGKCSTRGRKCCRRKK; ends and bridges not checked; cysteine pairing not given here; UniProt P81534 23-67, looked up) [hBD3]	+11	–
human β defensin 1 (DHYNCVSSGGQCLYSACPIFTKIQGTCYRGKAKCCK; ends and bridges not checked; cysteine pairing not given here; UniProt P60022 33-68, looked up) [hBD1]	+5	–
